The test concerns the target biotinylated His-Avi-TEAD (194-411) (UniProt P28347). The experiment in a line: SSM screen, enrichment after two rounds of sorting.
For the molecule GSPDEYIERASECCKKGDIQCCLRYFEESGDPNVMLICLFCP (designed binder) [K09S variant of SEQ ID NO: 1], the enrichment score was -0.91. GSPDEYIEAAKECCKKGDIQCCLRYFEESGDPNVMLICLFCP (designed binder) [R07A variant of SEQ ID NO: 1] gave an enrichment score of 0.28. In turn, GSPDEYIETAKECCKKGDIQCCLRYFEESGDPNVMLICLFCP (designed binder) [R07T variant of SEQ ID NO: 1] showed an enrichment score of -4.07. Molecule GSPDTYIERAKECCKKGDIQCCLRYFEESGDPNVMLICLFCP (designed binder) [E03T variant of SEQ ID NO: 1] returned an enrichment score of 1.19. For GSPTEYIERAKECCKKGDIQCCLRYFEESGDPNVMLICLFCP (designed binder) [D02T variant of SEQ ID NO: 1], the enrichment score was -0.52.

Take GSPDEYIERAKSCCKKGDIQCCLRYFEESGDPNVMLICLFCP (designed binder) [E10S variant of SEQ ID NO: 1]: the enrichment score is -2.47.

GSPDEAIERAKECCKKGDIQCCLRYFEESGDPNVMLICLFCP (designed binder) [Y04A variant of SEQ ID NO: 1] had an enrichment score of 0.26. GSPDEYTERAKECCKKGDIQCCLRYFEESGDPNVMLICLFCP (designed binder) [I05T variant of SEQ ID NO: 1] gave an enrichment score of -1.77. Consider GSPAEYIERAKECCKKGDIQCCLRYFEESGDPNVMLICLFCP (designed binder) [D02A variant of SEQ ID NO: 1], for which the enrichment score was -1.43. The value for GSPDAYIERAKECCKKGDIQCCLRYFEESGDPNVMLICLFCP (designed binder) [E03A variant of SEQ ID NO: 1] was -2.02; that for GSPDEYIERATECCKKGDIQCCLRYFEESGDPNVMLICLFCP (designed binder) [K09T variant of SEQ ID NO: 1] was 2.68.

As for GSPDETIERAKECCKKGDIQCCLRYFEESGDPNVMLICLFCP (designed binder) [Y04T variant of SEQ ID NO: 1], the enrichment score is -0.87. GSPDEYIERAKTCCKKGDIQCCLRYFEESGDPNVMLICLFCP (designed binder) [E10T variant of SEQ ID NO: 1] showed an enrichment score of -1.57. For GSPDEYITRAKECCKKGDIQCCLRYFEESGDPNVMLICLFCP (designed binder) [E06T variant of SEQ ID NO: 1], the enrichment score was -0.92.

GSADEYIERAKECCKKGDIQCCLRYFEESGDPNVMLICLFCP (designed binder) [P01A variant of SEQ ID NO: 1] showed an enrichment score of 0.36. In turn, GSPDEYIERAKACCKKGDIQCCLRYFEESGDPNVMLICLFCP (designed binder) [E10A variant of SEQ ID NO: 1] displayed an enrichment score of -0.24. The molecule GSPDEYIERTKECCKKGDIQCCLRYFEESGDPNVMLICLFCP (designed binder) [A08T variant of SEQ ID NO: 1] yielded an enrichment score of -3.84. The molecule GSPDEYIERAAECCKKGDIQCCLRYFEESGDPNVMLICLFCP (designed binder) [K09A variant of SEQ ID NO: 1] came in with an enrichment score of -1.27. As for GSPDEYIARAKECCKKGDIQCCLRYFEESGDPNVMLICLFCP (designed binder) [E06A variant of SEQ ID NO: 1], the enrichment score is -0.68. In turn, GSPDEYAERAKECCKKGDIQCCLRYFEESGDPNVMLICLFCP (designed binder) [I05A variant of SEQ ID NO: 1] showed an enrichment score of -1.2. Turning to GSTDEYIERAKECCKKGDIQCCLRYFEESGDPNVMLICLFCP (designed binder) [P01T variant of SEQ ID NO: 1], the enrichment score is -0.57.

The values are drawn from patent US20230151068A1.
